For two molecules, Kd results are on record in PMC7039212 (The Journal of Cell Biology, 2019).

Assay in all cases: MST
Test [1] addresses Cy5-G-actin (UniProt P68135).
Test [2] has as its target T1, GFP-CD2AP-1–475 aa (human, UniProt Q9Y5K6 1-475).
T1 sequence (looked up): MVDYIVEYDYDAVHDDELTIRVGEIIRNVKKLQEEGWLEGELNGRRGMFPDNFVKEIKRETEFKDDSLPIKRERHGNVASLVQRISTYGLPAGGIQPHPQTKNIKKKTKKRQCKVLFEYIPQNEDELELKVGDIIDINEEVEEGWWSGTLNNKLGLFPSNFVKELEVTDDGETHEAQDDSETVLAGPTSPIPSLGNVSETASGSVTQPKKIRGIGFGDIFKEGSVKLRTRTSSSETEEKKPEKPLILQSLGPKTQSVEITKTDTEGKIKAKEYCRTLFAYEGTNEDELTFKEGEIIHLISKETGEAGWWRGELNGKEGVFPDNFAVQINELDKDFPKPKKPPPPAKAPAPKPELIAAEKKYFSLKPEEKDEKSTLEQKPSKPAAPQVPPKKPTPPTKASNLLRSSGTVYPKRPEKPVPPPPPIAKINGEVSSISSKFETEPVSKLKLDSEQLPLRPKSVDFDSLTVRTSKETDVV

Test [3] deals with T2, GFP-CD2AP-1-335 aa (human, UniProt Q9Y5K6 1-335).
T2 sequence (looked up): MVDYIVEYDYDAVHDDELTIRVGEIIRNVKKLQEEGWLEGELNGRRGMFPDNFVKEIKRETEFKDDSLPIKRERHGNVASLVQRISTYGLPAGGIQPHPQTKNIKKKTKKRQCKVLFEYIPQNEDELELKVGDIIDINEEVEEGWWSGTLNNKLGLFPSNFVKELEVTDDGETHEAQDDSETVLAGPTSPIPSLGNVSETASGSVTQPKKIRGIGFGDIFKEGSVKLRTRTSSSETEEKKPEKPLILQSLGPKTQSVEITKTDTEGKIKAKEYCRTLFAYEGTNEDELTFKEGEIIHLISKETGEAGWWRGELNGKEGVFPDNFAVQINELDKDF

As usually defined, the Kd is the constant that tells how readily two partners part at equilibrium. Low readings indicate higher affinity, high ones lower affinity. “profilin (from UniProt P07737 1-140) (natural protein)” came in with a dissociation constant Kd in test [1] of 150 nM.

B1: PI3K p85α 1–315 aa (domain or fragment, human, UniProt P27986 1-315, looked up)
chain: MSAEGYQYRALYDYKKEREEDIDLHLGDILTVNKGSLVALGFSDGQEARPEEIGWLNGYNETTGERGDFPGTYVEYIGRKKISPPTPKPRPPRPLPVAPGSSKTEADVEQQALTLPDLAEQFAPPDIAPPLLIKLVEAIEKKGLECSTLYRTQSSSNLAELRQLLDCDTPSVDLEMIDVHVLADAFKRYLLDLPNPVIPAAVYSEMISLAPEVQSSEEYIQLLKKLIRSPSIPHQYWLTLQYLLKHFFKLSQTSSKNLLNARVLSEIFSPMLFRFSAASSDNTENLIKVIEILISTEWNERQPAPALPPKPPKPT
On to B1, for which the Kd came out at 940 nM in test [2] and 350 nM in test [3].
